# From patent US20160272683A1 (Novo Nordisk, published 2016)
# Numbered stars: 1 amine (or outer) side, 2 acyl side, 3 side chain; on linkers, the order of the positions; unused ones are H or OH. * marks the point of attachment. C20 diacid = O=C(O)CCCCCCCCCCCCCCCCCCC(=O)*; C18 diacid = O=C(O)CCCCCCCCCCCCCCCCC(=O)*; γGlu = O=C(O)[C@H](CCC(=O)[*:2])N[*:1]
# T1: human amylin 3(a) receptor (human calcitonin receptor co-expressed with RAMP-3) (human, UniProt P30988 25-474; O60896 24-148, limits assumed)
# T1 sequence (looked up) 1: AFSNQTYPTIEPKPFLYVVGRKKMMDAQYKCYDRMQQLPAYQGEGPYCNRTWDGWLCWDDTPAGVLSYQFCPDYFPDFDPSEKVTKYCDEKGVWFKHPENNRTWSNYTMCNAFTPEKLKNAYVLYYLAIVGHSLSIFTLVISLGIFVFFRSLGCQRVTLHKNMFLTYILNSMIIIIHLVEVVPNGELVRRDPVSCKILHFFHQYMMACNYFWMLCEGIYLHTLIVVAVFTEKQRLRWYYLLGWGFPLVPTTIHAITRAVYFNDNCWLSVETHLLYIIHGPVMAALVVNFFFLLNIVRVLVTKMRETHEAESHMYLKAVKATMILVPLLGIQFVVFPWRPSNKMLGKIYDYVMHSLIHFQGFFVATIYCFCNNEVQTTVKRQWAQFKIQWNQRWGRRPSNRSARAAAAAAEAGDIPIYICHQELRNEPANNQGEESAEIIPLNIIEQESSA
# T1 sequence (looked up) 2: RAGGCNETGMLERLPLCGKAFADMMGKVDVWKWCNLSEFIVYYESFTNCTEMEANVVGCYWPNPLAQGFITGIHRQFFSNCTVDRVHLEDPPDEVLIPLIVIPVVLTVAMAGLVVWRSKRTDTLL
# T2: human calcitonin receptor (human, UniProt P30988 25-474)
# T2 sequence (looked up): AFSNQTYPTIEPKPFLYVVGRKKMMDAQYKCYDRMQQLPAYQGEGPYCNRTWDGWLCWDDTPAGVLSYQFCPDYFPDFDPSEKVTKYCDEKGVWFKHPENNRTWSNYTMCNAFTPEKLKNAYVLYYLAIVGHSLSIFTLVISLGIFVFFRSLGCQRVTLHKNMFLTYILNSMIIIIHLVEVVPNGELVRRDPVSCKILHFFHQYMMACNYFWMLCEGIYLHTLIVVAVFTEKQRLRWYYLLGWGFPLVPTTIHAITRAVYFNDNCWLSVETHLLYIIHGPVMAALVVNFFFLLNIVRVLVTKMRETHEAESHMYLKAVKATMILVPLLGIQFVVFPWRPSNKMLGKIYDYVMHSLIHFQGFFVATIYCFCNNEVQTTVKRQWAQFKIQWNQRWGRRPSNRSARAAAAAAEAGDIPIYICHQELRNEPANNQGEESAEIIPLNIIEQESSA
# Tests used:
# [1] = target: T1, human amylin 3(a) receptor (human …); experiment: cell-based or functional assay
# [2] = target: T2, human calcitonin receptor; experiment: cell-based or functional assay
Binder,hAmylin-R funct. EC50 (pM) [1] [pM],hCTR funct. EC50 (pM) [2] [pM]
"{C18 diacid-γGlu}-ASEVSTAVVGRLSAELHELATLPRTETGSGSP-NH2 (SMILES CC(C)C[C@H](NC(=O)[C@H](CCC(=O)O)NC(=O)[C@H](Cc1c[nH]cn1)NC(=O)[C@H](CC(C)C)NC(=O)[C@H](CCC(=O)O)NC(=O)[C@H](C)NC(=O)[C@H](CO)NC(=O)[C@H](CC(C)C)NC(=O)[C@H](CCCNC(=N)N)NC(=O)CNC(=O)[C@@H](NC(=O)[C@@H](NC(=O)[C@H](C)NC(=O)[C@@H](NC(=O)[C@H](CO)NC(=O)[C@@H](NC(=O)[C@H](CCC(=O)O)NC(=O)[C@H](CO)NC(=O)[C@H](C)NC(=O)CC[C@H](NC(=O)CCCCCCCCCCCCCCCCC(=O)O)C(=O)O)C(C)C)[C@@H](C)O)C(C)C)C(C)C)C(=O)N[C@@H](C)C(=O)N[C@H](C(=O)N[C@@H](CC(C)C)C(=O)N1CCC[C@H]1C(=O)N[C@@H](CCCNC(=N)N)C(=O)N[C@H](C(=O)N[C@@H](CCC(=O)O)C(=O)N[C@H](C(=O)NCC(=O)N[C@@H](CO)C(=O)NCC(=O)N[C@@H](CO)C(=O)N1CCC[C@H]1C(N)=O)[C@@H](C)O)[C@@H](C)O)[C@@H](C)O) [[N-terminal(C18 diacid-gGlu), des1, 5V, 9V, 10V, 30S, 31G]mimylin]",11,8
"{C18 diacid-γGlu}-ASELTTAVLGRLSAELHELATLPRTETGTGTP-NH2 [[N-terminal(C18 diacid-gGlu), des1, 6T, 9V, 30T, 31G, 32T]mimylin]",65,32
"{C20 diacid-γGlu}-ASGLSTAVLGRLSAELHELATYPRTETGSGTP-NH2 (SMILES CC(C)C[C@H](NC(=O)CNC(=O)[C@H](CO)NC(=O)[C@H](C)NC(=O)CC[C@H](NC(=O)CCCCCCCCCCCCCCCCCCC(=O)O)C(=O)O)C(=O)N[C@@H](CO)C(=O)N[C@H](C(=O)N[C@@H](C)C(=O)N[C@H](C(=O)N[C@@H](CC(C)C)C(=O)NCC(=O)N[C@@H](CCCNC(=N)N)C(=O)N[C@@H](CC(C)C)C(=O)N[C@@H](CO)C(=O)N[C@@H](C)C(=O)N[C@@H](CCC(=O)O)C(=O)N[C@@H](CC(C)C)C(=O)N[C@@H](Cc1c[nH]cn1)C(=O)N[C@@H](CCC(=O)O)C(=O)N[C@@H](CC(C)C)C(=O)N[C@@H](C)C(=O)N[C@H](C(=O)N[C@@H](Cc1ccc(O)cc1)C(=O)N1CCC[C@H]1C(=O)N[C@@H](CCCNC(=N)N)C(=O)N[C@H](C(=O)N[C@@H](CCC(=O)O)C(=O)N[C@H](C(=O)NCC(=O)N[C@@H](CO)C(=O)NCC(=O)N[C@H](C(=O)N1CCC[C@H]1C(N)=O)[C@@H](C)O)[C@@H](C)O)[C@@H](C)O)[C@@H](C)O)C(C)C)[C@@H](C)O) [[N-terminal(C20 diacid-gGlu), des1, 4G, 9V, 23Y, 30S, 31G, 32T]mimylin]",47,28
"{C20 diacid-γGlu}-ASELSTAALGKLSAELHELATYPKTETGSGSY-NH2 (SMILES CC(C)C[C@H](NC(=O)[C@H](C)NC(=O)[C@H](C)NC(=O)[C@@H](NC(=O)[C@H](CO)NC(=O)[C@H](CC(C)C)NC(=O)[C@H](CCC(=O)O)NC(=O)[C@H](CO)NC(=O)[C@H](C)NC(=O)CC[C@H](NC(=O)CCCCCCCCCCCCCCCCCCC(=O)O)C(=O)O)[C@@H](C)O)C(=O)NCC(=O)N[C@@H](CCCCN)C(=O)N[C@@H](CC(C)C)C(=O)N[C@@H](CO)C(=O)N[C@@H](C)C(=O)N[C@@H](CCC(=O)O)C(=O)N[C@@H](CC(C)C)C(=O)N[C@@H](Cc1c[nH]cn1)C(=O)N[C@@H](CCC(=O)O)C(=O)N[C@@H](CC(C)C)C(=O)N[C@@H](C)C(=O)N[C@H](C(=O)N[C@@H](Cc1ccc(O)cc1)C(=O)N1CCC[C@H]1C(=O)N[C@@H](CCCCN)C(=O)N[C@H](C(=O)N[C@@H](CCC(=O)O)C(=O)N[C@H](C(=O)NCC(=O)N[C@@H](CO)C(=O)NCC(=O)N[C@@H](CO)C(=O)N[C@@H](Cc1ccc(O)cc1)C(N)=O)[C@@H](C)O)[C@@H](C)O)[C@@H](C)O) [[N-terminal(C20 diacid-gGlu), des1, 12K, 23Y, 25K, 30S, 31G, 33Y]mimylin]",51,37
"{C20 diacid-γGlu}-ASELSTATLGRLSAELHELSTYPRTETGSGSY-NH2 (SMILES CC(C)C[C@H](NC(=O)[C@H](CCCNC(=N)N)NC(=O)CNC(=O)[C@H](CC(C)C)NC(=O)[C@@H](NC(=O)[C@H](C)NC(=O)[C@@H](NC(=O)[C@H](CO)NC(=O)[C@H](CC(C)C)NC(=O)[C@H](CCC(=O)O)NC(=O)[C@H](CO)NC(=O)[C@H](C)NC(=O)CC[C@H](NC(=O)CCCCCCCCCCCCCCCCCCC(=O)O)C(=O)O)[C@@H](C)O)[C@@H](C)O)C(=O)N[C@@H](CO)C(=O)N[C@@H](C)C(=O)N[C@@H](CCC(=O)O)C(=O)N[C@@H](CC(C)C)C(=O)N[C@@H](Cc1c[nH]cn1)C(=O)N[C@@H](CCC(=O)O)C(=O)N[C@@H](CC(C)C)C(=O)N[C@@H](CO)C(=O)N[C@H](C(=O)N[C@@H](Cc1ccc(O)cc1)C(=O)N1CCC[C@H]1C(=O)N[C@@H](CCCNC(=N)N)C(=O)N[C@H](C(=O)N[C@@H](CCC(=O)O)C(=O)N[C@H](C(=O)NCC(=O)N[C@@H](CO)C(=O)NCC(=O)N[C@@H](CO)C(=O)N[C@@H](Cc1ccc(O)cc1)C(N)=O)[C@@H](C)O)[C@@H](C)O)[C@@H](C)O) [[N-terminal(C20 diacid-gGlu), des1, 9T, 21S, 23Y, 30S, 31G, 33Y]mimylin]",20,23
"{C20 diacid-γGlu}-ASELSTAALGRLSAELHELSTYPRTETGSGSY-NH2 (SMILES CC(C)C[C@H](NC(=O)[C@H](C)NC(=O)[C@H](C)NC(=O)[C@@H](NC(=O)[C@H](CO)NC(=O)[C@H](CC(C)C)NC(=O)[C@H](CCC(=O)O)NC(=O)[C@H](CO)NC(=O)[C@H](C)NC(=O)CC[C@H](NC(=O)CCCCCCCCCCCCCCCCCCC(=O)O)C(=O)O)[C@@H](C)O)C(=O)NCC(=O)N[C@@H](CCCNC(=N)N)C(=O)N[C@@H](CC(C)C)C(=O)N[C@@H](CO)C(=O)N[C@@H](C)C(=O)N[C@@H](CCC(=O)O)C(=O)N[C@@H](CC(C)C)C(=O)N[C@@H](Cc1c[nH]cn1)C(=O)N[C@@H](CCC(=O)O)C(=O)N[C@@H](CC(C)C)C(=O)N[C@@H](CO)C(=O)N[C@H](C(=O)N[C@@H](Cc1ccc(O)cc1)C(=O)N1CCC[C@H]1C(=O)N[C@@H](CCCNC(=N)N)C(=O)N[C@H](C(=O)N[C@@H](CCC(=O)O)C(=O)N[C@H](C(=O)NCC(=O)N[C@@H](CO)C(=O)NCC(=O)N[C@@H](CO)C(=O)N[C@@H](Cc1ccc(O)cc1)C(N)=O)[C@@H](C)O)[C@@H](C)O)[C@@H](C)O) [[N-terminal(C20 diacid-gGlu), des1, 21S, 23Y, 30S, 31G, 33Y]mimylin]",50,34
"{C18 diacid}-EASELSTAVLGRLSAELHELATLPRTETGPESP-NH2 (SMILES CC(C)C[C@H](NC(=O)[C@H](CCC(=O)O)NC(=O)[C@H](Cc1c[nH]cn1)NC(=O)[C@H](CC(C)C)NC(=O)[C@H](CCC(=O)O)NC(=O)[C@H](C)NC(=O)[C@H](CO)NC(=O)[C@H](CC(C)C)NC(=O)[C@H](CCCNC(=N)N)NC(=O)CNC(=O)[C@H](CC(C)C)NC(=O)[C@@H](NC(=O)[C@H](C)NC(=O)[C@@H](NC(=O)[C@H](CO)NC(=O)[C@H](CC(C)C)NC(=O)[C@H](CCC(=O)O)NC(=O)[C@H](CO)NC(=O)[C@H](C)NC(=O)[C@H](CCC(=O)O)NC(=O)CCCCCCCCCCCCCCCCC(=O)O)[C@@H](C)O)C(C)C)C(=O)N[C@@H](C)C(=O)N[C@H](C(=O)N[C@@H](CC(C)C)C(=O)N1CCC[C@H]1C(=O)N[C@@H](CCCNC(=N)N)C(=O)N[C@H](C(=O)N[C@@H](CCC(=O)O)C(=O)N[C@H](C(=O)NCC(=O)N1CCC[C@H]1C(=O)N[C@@H](CCC(=O)O)C(=O)N[C@@H](CO)C(=O)N1CCC[C@H]1C(N)=O)[C@@H](C)O)[C@@H](C)O)[C@@H](C)O) [[N-terminal(C18 diacid), 9V]mimylin]",12,9
"{C20 diacid-γGlu}-ASELSTASLGRLSAELHELSTYPRTETGSGSY-NH2 (SMILES CC(C)C[C@H](NC(=O)[C@H](CO)NC(=O)[C@H](C)NC(=O)[C@@H](NC(=O)[C@H](CO)NC(=O)[C@H](CC(C)C)NC(=O)[C@H](CCC(=O)O)NC(=O)[C@H](CO)NC(=O)[C@H](C)NC(=O)CC[C@H](NC(=O)CCCCCCCCCCCCCCCCCCC(=O)O)C(=O)O)[C@@H](C)O)C(=O)NCC(=O)N[C@@H](CCCNC(=N)N)C(=O)N[C@@H](CC(C)C)C(=O)N[C@@H](CO)C(=O)N[C@@H](C)C(=O)N[C@@H](CCC(=O)O)C(=O)N[C@@H](CC(C)C)C(=O)N[C@@H](Cc1c[nH]cn1)C(=O)N[C@@H](CCC(=O)O)C(=O)N[C@@H](CC(C)C)C(=O)N[C@@H](CO)C(=O)N[C@H](C(=O)N[C@@H](Cc1ccc(O)cc1)C(=O)N1CCC[C@H]1C(=O)N[C@@H](CCCNC(=N)N)C(=O)N[C@H](C(=O)N[C@@H](CCC(=O)O)C(=O)N[C@H](C(=O)NCC(=O)N[C@@H](CO)C(=O)NCC(=O)N[C@@H](CO)C(=O)N[C@@H](Cc1ccc(O)cc1)C(N)=O)[C@@H](C)O)[C@@H](C)O)[C@@H](C)O) [[N-terminal(C20 diacid-gGlu), des1, 9S, 21S, 23Y, 30S, 31G, 33Y]mimylin]",17,16
